B1: TR01H084-E2702GsKsc/L0011-k0 (antibody, human IgG4 S228P, kappa, N297A)
heavy: QVQLVESGGGVVQPGGSLRLSCAASGFTFSNAWMHWVRQAPGKGLEWVAQIKDKSQNYATYYAESVKGRFTISRADSKNSIYLQMNSLKTEDTAVYYCRYVHYAAGYGVDIWGQGTTVTVSSASTKGPSVFPLAPCSRSTSESTAALGCLVKDYFPEPVTVSWNSGALTSGVHTFPAVLQSSGLYSLSSVVTVPSSSLGTKTYTCNVDHKPSNTKVDKRVESKYGPPCPPCPAPEFRGGPKVFLFPPKPKDTLMISRTPEVTCVVVDVSQEDPEVQFNWYVDGVEVHNAKTKPREEQFASTYRVVSVLTVLHQDWLNGKEYKCKVSNKGLPSSIEKTISKAKGQPREPQVYTLPPSQKEMTKNQVSLTCLVKGFYPSDIAVEWESNGQPENNYKTTPPVLDSDGSFFLYSKLTVDKSRWQEGNVFSCSVMHEALHNRYTQKSLSLSP
light: DIVMTQSPLSLPVTPGEPASISCRSSQPLVHSNRNTYLHWYQQKPGQAPRLLIYKVSNRFSGVPDRFSGSGSGTDFTLKISRVEAEDVGVYYCGQGTQVPYTFGQGTKLEIKRTVAAPSVFIFPPSDEQLKSGTASVVCLLNNFYPREAKVQWKVDNALQSGNSQESVTEQDSKDSTYSLSSTLTLSKADYEKHKVYACEVTHQGLSSPVTKSFNRGEC
B2: TR01H090-E2702GsKsc/L0011-k0 (antibody, human IgG4 S228P, kappa, N297A)
heavy: QVQLVESGGGLVQPGGSLRLSCAASGFTFSNAWMHWVRQAPGKGLEWVAQIKDKSQNYATYYAESVKGRFTISRDDSKNSLYLQMNSLKTEDTAVYYCRYVHYAAGYGVDAWGQGTTVTVSSASTKGPSVFPLAPCSRSTSESTAALGCLVKDYFPEPVTVSWNSGALTSGVHTFPAVLQSSGLYSLSSVVTVPSSSLGTKTYTCNVDHKPSNTKVDKRVESKYGPPCPPCPAPEFRGGPKVFLFPPKPKDTLMISRTPEVTCVVVDVSQEDPEVQFNWYVDGVEVHNAKTKPREEQFASTYRVVSVLTVLHQDWLNGKEYKCKVSNKGLPSSIEKTISKAKGQPREPQVYTLPPSQKEMTKNQVSLTCLVKGFYPSDIAVEWESNGQPENNYKTTPPVLDSDGSFFLYSKLTVDKSRWQEGNVFSCSVMHEALHNRYTQKSLSLSP
light: DIVMTQSPLSLPVTPGEPASISCRSSQPLVHSNRNTYLHWYQQKPGQAPRLLIYKVSNRFSGVPDRFSGSGSGTDFTLKISRVEAEDVGVYYCGQGTQVPYTFGQGTKLEIKRTVAAPSVFIFPPSDEQLKSGTASVVCLLNNFYPREAKVQWKVDNALQSGNSQESVTEQDSKDSTYSLSSTLTLSKADYEKHKVYACEVTHQGLSSPVTKSFNRGEC
B3: TR01H111-E2702GsKsc/L0011-k0 (antibody, human IgG4 S228P, kappa, N297A)
heavy: QVQLVESGGGVVQPGGSLKLSCAASGFTFSNAWMHWVRQAPGKGLEWVAQIKDKSQNYATYYAESVKGRFTISRADSKNSIYLQMNSLKTEDTAVYYCRYVHYAAGYGVDIWGQGTTVTVSSASTKGPSVFPLAPCSRSTSESTAALGCLVKDYFPEPVTVSWNSGALTSGVHTFPAVLQSSGLYSLSSVVTVPSSSLGTKTYTCNVDHKPSNTKVDKRVESKYGPPCPPCPAPEFRGGPKVFLFPPKPKDTLMISRTPEVTCVVVDVSQEDPEVQFNWYVDGVEVHNAKTKPREEQFASTYRVVSVLTVLHQDWLNGKEYKCKVSNKGLPSSIEKTISKAKGQPREPQVYTLPPSQKEMTKNQVSLTCLVKGFYPSDIAVEWESNGQPENNYKTTPPVLDSDGSFFLYSKLTVDKSRWQEGNVFSCSVMHEALHNRYTQKSLSLSP
light: DIVMTQSPLSLPVTPGEPASISCRSSQPLVHSNRNTYLHWYQQKPGQAPRLLIYKVSNRFSGVPDRFSGSGSGTDFTLKISRVEAEDVGVYYCGQGTQVPYTFGQGTKLEIKRTVAAPSVFIFPPSDEQLKSGTASVVCLLNNFYPREAKVQWKVDNALQSGNSQESVTEQDSKDSTYSLSSTLTLSKADYEKHKVYACEVTHQGLSSPVTKSFNRGEC
B4: TR01H082-E2702GsKsc/L0011-k0 (antibody, human IgG4 S228P, kappa, N297A)
heavy: QVQLVESGGGLVQPGRSLRLSCAASGFTFSNAWMHWVRQAPGKGLEWVAQIKDKSQNYATYYAESVKGRFTISRDDSKNSLYLQMNSLKTEDTAVYYCRYVHYAAGYGVDAWGQGTTVTVSSASTKGPSVFPLAPCSRSTSESTAALGCLVKDYFPEPVTVSWNSGALTSGVHTFPAVLQSSGLYSLSSVVTVPSSSLGTKTYTCNVDHKPSNTKVDKRVESKYGPPCPPCPAPEFRGGPKVFLFPPKPKDTLMISRTPEVTCVVVDVSQEDPEVQFNWYVDGVEVHNAKTKPREEQFASTYRVVSVLTVLHQDWLNGKEYKCKVSNKGLPSSIEKTISKAKGQPREPQVYTLPPSQKEMTKNQVSLTCLVKGFYPSDIAVEWESNGQPENNYKTTPPVLDSDGSFFLYSKLTVDKSRWQEGNVFSCSVMHEALHNRYTQKSLSLSP
light: DIVMTQSPLSLPVTPGEPASISCRSSQPLVHSNRNTYLHWYQQKPGQAPRLLIYKVSNRFSGVPDRFSGSGSGTDFTLKISRVEAEDVGVYYCGQGTQVPYTFGQGTKLEIKRTVAAPSVFIFPPSDEQLKSGTASVVCLLNNFYPREAKVQWKVDNALQSGNSQESVTEQDSKDSTYSLSSTLTLSKADYEKHKVYACEVTHQGLSSPVTKSFNRGEC
B5: TR01H110-E2702GsKsc/L0011-k0 (antibody, human IgG4 S228P, kappa, N297A)
heavy: QVQLVESGGGVVQPGRSLKLSCAASGFTFSNAWMHWVRQAPGKGLEWVAQIKDKSQNYATYYAESVKGRFTISRDDSKNSLYLQMNSLKTEDTAVYYCRYVHYAAGYGVDAWGQGTTVTVSSASTKGPSVFPLAPCSRSTSESTAALGCLVKDYFPEPVTVSWNSGALTSGVHTFPAVLQSSGLYSLSSVVTVPSSSLGTKTYTCNVDHKPSNTKVDKRVESKYGPPCPPCPAPEFRGGPKVFLFPPKPKDTLMISRTPEVTCVVVDVSQEDPEVQFNWYVDGVEVHNAKTKPREEQFASTYRVVSVLTVLHQDWLNGKEYKCKVSNKGLPSSIEKTISKAKGQPREPQVYTLPPSQKEMTKNQVSLTCLVKGFYPSDIAVEWESNGQPENNYKTTPPVLDSDGSFFLYSKLTVDKSRWQEGNVFSCSVMHEALHNRYTQKSLSLSP
light: DIVMTQSPLSLPVTPGEPASISCRSSQPLVHSNRNTYLHWYQQKPGQAPRLLIYKVSNRFSGVPDRFSGSGSGTDFTLKISRVEAEDVGVYYCGQGTQVPYTFGQGTKLEIKRTVAAPSVFIFPPSDEQLKSGTASVVCLLNNFYPREAKVQWKVDNALQSGNSQESVTEQDSKDSTYSLSSTLTLSKADYEKHKVYACEVTHQGLSSPVTKSFNRGEC
B6: TR01H091-E2702GsKsc/L0011-k0 (antibody, human IgG4 S228P, kappa, N297A)
heavy: QVQLVESGGGLVQPGRSLKLSCAASGFTFSNAWMHWVRQAPGKGLEWVAQIKDKSQNYATYYAESVKGRFTISRDDSKNSLYLQMNSLKTEDTAVYYCRYVHYAAGYGVDAWGQGTTVTVSSASTKGPSVFPLAPCSRSTSESTAALGCLVKDYFPEPVTVSWNSGALTSGVHTFPAVLQSSGLYSLSSVVTVPSSSLGTKTYTCNVDHKPSNTKVDKRVESKYGPPCPPCPAPEFRGGPKVFLFPPKPKDTLMISRTPEVTCVVVDVSQEDPEVQFNWYVDGVEVHNAKTKPREEQFASTYRVVSVLTVLHQDWLNGKEYKCKVSNKGLPSSIEKTISKAKGQPREPQVYTLPPSQKEMTKNQVSLTCLVKGFYPSDIAVEWESNGQPENNYKTTPPVLDSDGSFFLYSKLTVDKSRWQEGNVFSCSVMHEALHNRYTQKSLSLSP
light: DIVMTQSPLSLPVTPGEPASISCRSSQPLVHSNRNTYLHWYQQKPGQAPRLLIYKVSNRFSGVPDRFSGSGSGTDFTLKISRVEAEDVGVYYCGQGTQVPYTFGQGTKLEIKRTVAAPSVFIFPPSDEQLKSGTASVVCLLNNFYPREAKVQWKVDNALQSGNSQESVTEQDSKDSTYSLSSTLTLSKADYEKHKVYACEVTHQGLSSPVTKSFNRGEC
B7: TR01H093-E2702GsKsc/L0011-k0 (antibody, human IgG4 S228P, kappa, N297A, V domains shown)
VH: QVQLVESGGGLVQPGRSLRLSCAASGFTFSNAWMHWVRQAPGKGLEWVAQIKDKSQNYATYYAESVQGRFTISRDDSKNSLYLQMNSLKTEDTAVYYCRYVHYAAGYGVDAWGQGTTVTVSS
VL: DIVMTQSPLSLPVTPGEPASISCRSSQPLVHSNRNTYLHWYQQKPGQAPRLLIYKVSNRFSGVPDRFSGSGSGTDFTLKISRVEAEDVGVYYCGQGTQVPYTFGQGTKLEIKR
B8: TR01H094-E2702GsKsc/L0011-k0 (antibody, human IgG4 S228P, kappa, N297A, V domains shown)
VH: QVQLVESGGGLVQPGRSLRLSCAASGFTFSNAWMHWVRQAPGKGLEWVAQIKDKSQNYATYYAESVSGRFTISRDDSKNSLYLQMNSLKTEDTAVYYCRYVHYAAGYGVDAWGQGTTVTVSS
VL: DIVMTQSPLSLPVTPGEPASISCRSSQPLVHSNRNTYLHWYQQKPGQAPRLLIYKVSNRFSGVPDRFSGSGSGTDFTLKISRVEAEDVGVYYCGQGTQVPYTFGQGTKLEIKR
B9: TR01H100-E2702GsKsc/L0011-k0 (antibody, human IgG4 S228P, kappa, N297A, V domains shown)
VH: QVQLVESGGGLVQPGRSLRLSCAASGFTFSNAWMHWVRQAPGKGLEWVAQIKDKSQNYASYYAESVKGRFTISRDDSKNSLYLQMNSLKTEDTAVYYCRYVHYAAGYGVDAWGQGTTVTVSS
VL: DIVMTQSPLSLPVTPGEPASISCRSSQPLVHSNRNTYLHWYQQKPGQAPRLLIYKVSNRFSGVPDRFSGSGSGTDFTLKISRVEAEDVGVYYCGQGTQVPYTFGQGTKLEIKR
B10: TR01H112-E2702GsKsc/L0011-k0 (antibody, human IgG4 S228P, kappa, N297A, V domains shown)
VH: QVQLVESGGGVVQPGGSLRLSCAASGFTFSNAWMHWVRQAPGKGLEWVAQIKDKSQNYAQYYAESVKGRFTISRADSKNSIYLQMNSLKTEDTAVYYCRYVHYAAGYGVDIWGQGTTVTVSS
VL: DIVMTQSPLSLPVTPGEPASISCRSSQPLVHSNRNTYLHWYQQKPGQAPRLLIYKVSNRFSGVPDRFSGSGSGTDFTLKISRVEAEDVGVYYCGQGTQVPYTFGQGTKLEIKR
B11: TR01H114-E2702GsKsc/L0011-k0 (antibody, human IgG4 S228P, kappa, N297A, V domains shown)
VH: QVQLVESGGGVVQPGGSLRLSCAASGFTFSNAWMHWVRQAPGKGLEWVAQIKDKSQNYASYYAESVKGRFTISRADSKNSIYLQMNSLKTEDTAVYYCRYVHYAAGYGVDIWGQGTTVTVSS
VL: DIVMTQSPLSLPVTPGEPASISCRSSQPLVHSNRNTYLHWYQQKPGQAPRLLIYKVSNRFSGVPDRFSGSGSGTDFTLKISRVEAEDVGVYYCGQGTQVPYTFGQGTKLEIKR
B12: TR01H113-E2702GsKsc/L0011-k0 (antibody, human IgG4 S228P, kappa, N297A, V domains shown)
VH: QVQLVESGGGVVQPGGSLRLSCAASGFTFSNAWMHWVRQAPGKGLEWVAQIKDKSQNYATYVAESVKGRFTISRADSKNSIYLQMNSLKTEDTAVYYCRYVHYAAGYGVDIWGQGTTVTVSS
VL: DIVMTQSPLSLPVTPGEPASISCRSSQPLVHSNRNTYLHWYQQKPGQAPRLLIYKVSNRFSGVPDRFSGSGSGTDFTLKISRVEAEDVGVYYCGQGTQVPYTFGQGTKLEIKR
B13: TR01H092-E2702GsKsc/L0011-k0 (antibody, human IgG4 S228P, kappa, N297A, V domains shown)
VH: QVQLVESGGGLVQPGRSLRLSCAASGFTFSNAWMHWVRQAPGKGLEWVAQIKDKSQNYATYYAESVAGRFTISRDDSKNSLYLQMNSLKTEDTAVYYCRYVHYAAGYGVDAWGQGTTVTVSS
VL: DIVMTQSPLSLPVTPGEPASISCRSSQPLVHSNRNTYLHWYQQKPGQAPRLLIYKVSNRFSGVPDRFSGSGSGTDFTLKISRVEAEDVGVYYCGQGTQVPYTFGQGTKLEIKR

Our source for the SuRe binding (RU) values is patent US20210388110A1.

Where “and” joins values, the source holds several entries; their conditions need not be identical. Equal values may be shown once.

The test deals with Mab Select SuRe Ligand. Nature of the test: SPR (Biacore T200), SuRe ligand on CM5 chip, antibody 5 ug/mL. In general terms: SPR reads the build-up and loss of mass on a sensor chip optically.
B1 had a SuRe binding (RU) of 5070 RU.

B2 showed a SuRe binding (RU) of 3610 RU.

On to B3, for which the SuRe binding (RU) stood at 50.7 RU.

As for B4, the SuRe binding (RU) is 4470 RU.

As for B5, the SuRe binding (RU) stood at 29.5 RU.

In the case of B6, the SuRe binding (RU) is 27.5 RU and 15 RU.

Consider B7, for which the SuRe binding (RU) was 2460 RU.

Regarding B8, the SuRe binding (RU) came to 2350 RU.

Molecule B9 returned a SuRe binding (RU) of 383 RU.

As to B10, the SuRe binding (RU) was determined as 8.8 RU.

For the molecule B11, the SuRe binding (RU) came to 1490 RU.

Molecule B12 returned a SuRe binding (RU) of 7 RU.

For the molecule B13, the SuRe binding (RU) worked out at 1160 RU.
